Assay results taken from US20250027068.

Molecular target: pooled human IgG (human IgG1,2,3 and 4)

Protein | Enzyme Activity Endpoint Assay: Fab′2 | Enzyme Activity Endpoint Assay: Fc | Enzyme Activity Endpoint Assay: IgG | Enzyme Activity Endpoint Assay: scIgG | Enzyme activity endpoint: Fab′2 | Enzyme activity endpoint: Fc | Enzyme activity endpoint: IgG | Enzyme activity endpoint: scIgG
PRT-87 (protein) MANQEIRYSEVTPYHITSVWTKGVTPPEQFTQGEDVFHAPYIANQGWYDITKTFNGKDNLLCGAATAGNMLHWWFDQNKEEIERYLKKYPEKQKIMFGDQELLDVRKVINTKDSQTNSKLFEYFRDKAFPNLSARRLGVMPDLVLDMFINGYYLSVTKTQTTDVNRTYGNKDNRGGIFDAVFTRGDQSKLLTNRHDFKEKNLKEISQLIKQELQEGKALALSHTYANVRINHVINLWGADFDSEGNLKAIYVTDSDSNASIGMKKYFVGVNSSGKVAISAKEIEEDNIGAQVLGLFTLSTGQDIWEQTN | 0 ng/µL | 52 ng/µL | 60 ng/µL | 50 ng/µL |  |  |  | 
PRT-628 (protein) MQITSVWTKGVTPLTPEQFRYNNEDVIHAPYLAHQGWYDITKAFDGKDNLLCGAATAGNMLHWWFDQNKEEIEAYLKKHPEKQKIIFNNQELFDLKAAIDTKDSQTNSQLFNYFRDKAFPNLSARQLGVMPDLVLDMFINGYYLNVFKTQSTDVNRPYQDKDKRGGIFDAVFTRGDQTTLLTARHDLKNKGLNDISTIIKQELTEGRALALSHTYANVSISHVINLWGADFNAEGNLEAIYVTDSDANASIGMKKYFVGINAHGHVAISAKKIEGENIGAQVLGLFTLSSGQDIWQQLSLEHHHHHH |  |  |  |  | 852 ng/µL | 465 ng/µL | 0 ng/µL | 0 ng/µL
PRT-653 (protein) MQITSVWTKGVTPLTPEQFRYNNEDVIHAPYLAHQGWYDITKAFDGKDNLLCGAATAGNMLHWWFDQNKTEIEAYLSKHPEKQKIIFNNQELFDLKAAIDTKDSQTNSQLFNYFRDKAFPNLSARQLGVMPDLVLDMFINGYYLNVFKTQSTDVNRPYQDKDKRGGIFDAVFTRGDQTTLLTARHDLKNKGLNDISTIIKQELTEGRALALSHTYGNVRSSHVINLWGADFNAEGNLEAIYVTDSDANASIGMKKYFVGINAHGHVAISAKKIEGENVGAQVLGLFTLSSGKDIWQKLSLEHHHHHH |  |  |  |  | 1350 ng/µL | 0 ng/µL | 2350 ng/µL | 0 ng/µL
PRT-652 (protein) MQITSVWTKGVTPLTPEQFRYNNEDVIHAPYLAHQGWYDITKAFDGKDNLLCGAATAGNMLHWWFDQNKTEIEAYLSKHPEKQKIIFNNQELFDLKAAIDTKDSQTNSQLFNYFRDKAFPNLSARQLGVMPDLVLDMFINGYYLNVFKTQSTDVNRPYQDKDKRGGIFDAVFTRGDQTTLLTARHDLKNKGLNDISTIIKQELTEGRALALSHGTANGGYSHVINLWGADFNAEGNLEAIYVTDSDANASIGMKKYFVGINAHGHVAISAKKIEGENKGAQVLGLFTLSSGKDIWQKLSLEHHHHHH |  |  |  |  | 410 ng/µL | 0 ng/µL | 789 ng/µL | 12 ng/µL
PRT-648 (protein) MQITSVWTKGVTPLTPEQFRYNNEDVIHAPYLAHQGWYDITKAFDGKDNLLCGAATAGNMLHWWFDQNKTEIEAYLSKHPEKQKIIFNNQYLFDLKAAIDTKDSQTNSQLFNYFRDKAFGNLSARQLGVMPDLVLDMFINGYYLNVNKTQSTDVNRPYQKPDKRGGIFDAVFTRGDQTTLLTARHDLKNKGLNDISTIIKQELTEGRALALSHTYANVSISHVINLWGADFNAEGNLEAIYVTDSDANASIGMKKYFVGINAHGHVAISAKKIEGENIGAQVLGLFTLSSGKDIWQKLSLEHHHHHH |  |  |  |  | 182 ng/µL | 206 ng/µL | 417 ng/µL | 619 ng/µL
PRT-679 (protein) MQITSVWTKGVTPLTPEQFRYNNEDVIHAPYLAHQGWYDITKTFDGKDNLLCGAATAGNMLHWWFDQNKTEIEAYLSKHPEKQKIIFNNQELFDLKEAINTKDSQTNSQLFNYFRDKAFPNLSARQLGVMPDLVLDMFINGYYLNVFKTQSTDVNRPYQDKDKRGGIFDAVFTRGDQTTLLTARHDLKNKGLNEISTIIKQELTEGKALALSHTYANVSISHVINLWGADFNAEGNLEAIYVTDSDANASIGMKKYFVGINAHGHVAISAKKIEGENIGAQVLGLFTLSSGKDIWQKLSLEHHHHHH |  |  |  |  | 693 ng/µL | 327 ng/µL | 34 ng/µL | 54 ng/µL
PRT-656 (protein) MQITSVWTKGVTPLTPEQFRYNNEDVIHAPYLAHQGWYDITKAFDGKDNLLCGAATAGNMLHWWFDQNKTEIEAYLSKHPEKQKIIFNNQELFDLKRAINDKDSQQNSELFNYFRDKAFPNLSARQLGVMPDLVLDMFINGYYLNVFKTQSTDVNRPYQDKDKRGGIFDAVFTRGDQTTLLTARHDLKNKGLNDISTIIKQELTEGRALALSHTYANVSISHVINLWGADFNAEGNLEAIYVTDSDANASIGMKKYFVGINAHGHVAISAKKIEGENIGAQVLGLFTLSSGKDIWQKLSLEHHHHHH |  |  |  |  | 841 ng/µL | 540 ng/µL | 0 ng/µL | 319 ng/µL
PRT-672 (protein) MQITSVWTKGVTPPTPEQFTYQNEDVFHAPYIANQGWYDITKTFNGKDNLLCGAATAGNMLHWWFDQNKTEIENYLKKHPEKQKIIFNNQEMFDLRKAINTKDSQTNSALFEYFRDKAFPNLSARQLGVMPDHVLDMFINGYYLNVTKTQSTDVNRPYQTKDKRGGIFDHVFTRGDQSKLLTARHDLKNKTLNEISDLIKQELTEGKALALSHTYANVRINHVINLWGADFDAEGNLEAIYVTDSDSNASIGMKKYFVGVNSSGKVAISAKKIEDDNIGAQVLGLFTLSSGQDIWEQLSLEHHHHHH |  |  |  |  | 775 ng/µL | 443 ng/µL | 73 ng/µL | 0 ng/µL
PRT-674 (protein) MQITSVWTKGVTPPTMEQFRYNNYDVFHAPYLPGQGWYDITKAFDGGDNLLCGAATAGNMLHWWFDQNKEEIEAYLSKYPEKQKIIFNNQELFDLRKAINSKDSQTNSELFNYFRDKAFGNLSARQKGVMPDLVLDMFINGYYLNLNKTQSTDVNRPYQDPDKRGGIFDDVFKEGDQTKLLTARHDLSNGGLDDISTIIKQELQSGRALALSHTYANVSYSHVINLWGADFDAEGNLEAIYVTDSDDDQSIGMKKYKVGKNASGHVRISAKKIEDENIGAQVLGLFTLSLGKEIWQKLSLEHHHHHH |  |  |  |  | 462 ng/µL | 0 ng/µL | 891 ng/µL | 12 ng/µL
PRT-664 (protein) MQITSVWTKGVTPLTPEQFRYNNEDVIHAPYLPHQGWYDITKAFDGKDNLLCGAATAGNMLHWWFDQNKTEIEAYLSKHPEKQKIIFNNQELFDLRAAINTKDSQTNSALFNYFRDKAFPNLSARQLGVMPDLVLDMFINGYYLNVFKTQSTDVNRPYQDKDKRGGIFDAVFTRGDQTTLLTARHDLKNKGLNDISTLIKQELTEGKALALSHTYANVSISHVINLWGADFNAEGNLEAIYVTDSDSDASIGMKKYYVGINASGHVAISAKKIEGENIGAQVLGLFTLSSGKDIWQKLSLEHHHHHH |  |  |  |  | 703 ng/µL | 419 ng/µL | 0 ng/µL | 0 ng/µL
PRT-86 (protein) MANQEIRYSEEDPKHVTSVWTKGVTPPTDFTQGEDVLHAPYIANQGWYDITKTFNGKDDLLCGAATAGNMLHWWFDQNKEEIENYLKKHPEKQKIMFGDQELLDVRKVINTKDSQTNSKLFNYFREKAFPNLSARRLGVMPDLVLDMFINGYYLNVTKTQTTDVNRTYQTKDKRGGIFDAVFTRGDQTKLLTNRHDFKEKTLNEISDLIKQELQEGKALGLSHTYANVRINHVINLWGADFDSNGNLEAIYVTDSDANASIGMKKYFVGKNSAGKVAISAKEIKDDNIGAQVLGLFTLSTGQDIWNQTN | 4 ng/µL | 61 ng/µL | 45 ng/µL | 53 ng/µL |  |  |  | 
PRT-88 (protein) MANQEIRYSEVTPYHVTSVWTKGVTPPAKFTQGEDVFHAPYVANQGWYDITKTFNGKDDLLCGAATAGNMLHWWFDQNKEKIEAYLKKHPEKQKIMFGDQELLDVRKVINTKGDQTNSELFNYFRDKAFPGLSARRLGVMPDLVLDMFINGYYLNVYKTQTTDVNRTYQEKDRRGGIFDAVFTRGDQSKLLTSRHDFKEKNLKEISDLIKKELTEGKALGLSHTYANVRINHVINLWGADFDSNGNLKAIYVTDSDSNASIGMKKYFVGVNSAGKVAISAKEIKEDNIGAQVLGLFTLSTGQDIWNQTN | 48 ng/µL | 110 ng/µL | 25 ng/µL | 0 ng/µL |  |  |  | 
PRT-85 (protein) MANQEIRYSEVTPKTITSVWTKGVTPPADFTQGEDVFHAPYKPNQGWYDINKTFNGKDNLLCGAATAGNMLHWWFDQNKEQIEAYLKKHPEKQKIMFGDQELLDVRKAINTKDDQTDSKLFNYFKDKAFPNLSARRLGVMPDHVLDMFINGYRLNVTKTQTTDVNRTYQTKDKRGGFFDAVFTRGDQSKLLTNRHDFKEKNLKEISDLIKKELTEGKALGLSHTYANVRINHVINLWGADFDSEGNLKAIYVTDSDSNASIGMKKYYVGVNSAGKVAISAKEIKGENIGAQVLGLYTLSTGQDIWNQTN | 0 ng/µL | 0 ng/µL | 109 ng/µL | 0 ng/µL |  |  |  | 
PRT-84 (protein) MANQEIRYSEETPYTVTSVWTKGVTPPTQFIQGEDVFHAPYKANQGWYDITKTFNGKDNLLCGAATAGNMLHWWFDQNKEYIEAYLKKHPEKQKIMFGDQELLDVRKVINTKDSQTDSKLFNYFKDKAFPNLSARRLGVMPDLVLDMFINGYYLNVGKTQTTDVNRTYQEKDKRGGIFDAVFTRGDQSKLLTSRHDFKEKSLKEISDLIKKELTEGKALGLSHTYANVRINHVINLWGADFDSEGNLKAIYVTDSDSDASIGMKKYFVGVNSSGKVAISAKEIEEDNIGAQVLGLFTLSSGQDIWNQTN | 8 ng/µL | 67 ng/µL | 27 ng/µL | 51 ng/µL |  |  |  | 
